In paper PMC5477544, “Structural and mechanistic basis of differentiated inhibitors of the acute pancreatitis target kynurenine-3-monooxygenase” (Nature Communications, 2017) one finds Km and kcat data, which are given here for one protein.

Substrate in this data set: Nc1ccccc1C(=O)CC(N)C(=O)O
Description: purified protein, by the assay type. To be noted: other: human KMO, 200 μM NADPH.

B1: human KMO (Homo sapiens) (protein)
chain: MDSSVIQRKKVAVIGGGLVGSLQACFLAKRNFQIDVYEAREDTRVATFTRGRSINLALSHRGRQALKAVGLEDQIVSQGIPMRARMIHSLSGKKSAIPYGTKSQYILSVSRENLNKDLLTAAEKYPNVKMHFNHRLLKCNPEEGMITVLGSDKVPKDVTCDLIVGCDGAYSTVRSHLMKKPRFDYSQQYIPHGYMELTIPPKNGDYAMEPNYLHIWPRNTFMMIALPNMNKSFTCTLFMPFEEFEKLLTSNDVVDFFQKYFPDAIPLIGEKLLVQDFFLLPAQPMISVKCSSFHFKSHCVLLGDAAHAIVPFFGQGMNAGFEDCLVFDELMDKFSNDLSLCLPVFSRLRIPDDHAISDLSMYNYIEMRAHVNSSWFIFQKNMERFLHAIMPSTFIPLYTMVTFSRIRYHEAVQRWHWQKKVINKGLFFLGSLIAISSTYLLIHYMSPRSFLRLRRPWNWIAHFRNTTCFPAKAVDSLEQISNLISR
Usually Km stands for the concentration of substrate that gives half-maximal velocity. Broadly, the kcat is the maximal rate divided by the concentration of active sites. Consider B1, for which the Km was 2 µM and the catalytic constant (kcat) stood at 0.24 s⁻¹.
